# Measured values taken from patent publication US7341836B2, “Modified cyclic nucleotide gated ion channels” (The Regents of the University of Colorado, priority 2001, dated 2008).
# B1: E583M: modified rat olfactory cyclic nucleotide-gated ion channel containing the E583M mutation, SEQ ID NO:5 (protein, listed as Rattus norvegicus)
# chain: MMTEKSNGVKSSPANNHNHHPPPSIKANGKDDHRAGSRPQSVAADDDTSPELQRLAEMDTPRRGRGGFQRIVRLVGVIRDWANKNFREEEPRPDSFLERFRGPELQTVTTHQGDDKGGKDGEGKGTKKKFELFVLDPAGDWYYRWLFVIAMPVLYNWCLLVARACFSDLQRNYFVVWLVLDYFSDTVYIADLIIRLRTGFLEQGLLVKDPKKLRDNYIHTLQFKLDVASIIPTDLIYFAVGIHSPEVRFNRLLHFARMFEFFDRTETRTSYPNIFRISNLVLYILVIIHWNACIYYVISKSIGFGVDTWVYPNITDPEYGYLAREYIYCLYWSTLTLTTIGETPPPVKDEEYLFVIFDFLIGVLIFATIVGNVGSMISNMNATRAEFQAKIDAVKHYMQFRKVSKDMEAKVIKWFDYLWTNKKTVDEREVLKNLPAKLRAEIAINVHLSTLKKVRIFQDCEAGLLVELVLKLRPQVFSPGDYICRKGDIGKEMYIIKEGKLAVVADDGVTQYALLSAGSCFGEISILNIKGSKMGNRRTANIRSLGYSDLFCLSKDDLMEAVTEYPDAKKVLEERGREILMKMGLLDENEVAASMEVDVQEKLEQLETNMDTLYTRFARLLAEYTGAQQKLKQRITVLETKMKQNHEDDYLSDGINTPEPTAAE
# B2: WT: wild-type rat olfactory cyclic nucleotide gated channel α subunit, amino acid sequence SEQ ID NO:8 (protein, listed as Rattus norvegicus)
# chain: MMTEKSNGVKSSPANNHNHHPPPSIKANGKDDHRAGSRPQSVAADDDTSPELQRLAEMDTPRRGRGGFQRIVRLVGVIRDWANKNFREEEPRPDSFLERFRGPELQTVTTHQGDDKGGKDGEGKGTKKKFELFVLDPAGDWYYRWLFVIAMPVLYNWCLLVARACFSDLQRNYFVVWLVLDYFSDTVYIADLIIRLRTGFLEQGLLVKDPKKLRDNYIHTLQFKLDVASIIPTDLIYFAVGIHSPEVRFNRLLHFARMFEFFDRTETRTSYPNIFRISNLVLYILVIIHWNACIYYVISKSIGFGVDTWVYPNITDPEYGYLAREYIYCLYWSTLTLTTIGETPPPVKDEEYLFVIFDFLIGVLIFATIVGNVGSMISNMNATRAEFQAKIDAVKHYMQFRKVSKDMEAKVIKWFDYLWTNKKTVDEREVLKNLPAKLRAEIAINVHLSTLKKVRIFQDCEAGLLVELVLKLRPQVFSPGDYICRKGDIGKEMYIIKEGKLAVVADDGVTQYALLSAGSCFGEISILNIKGSKMGNRRTANIRSLGYSDLFCLSKDDLMEAVTEYPDAKKVLEERGREILMKEGLLDENEVAASMEVDVQEKLEQLETNMDTLYTRFARLLAEYTGAQQKLKQRITVLETKMKQNHEDDYLSDGINTPEPTAAE
# Assays:
# [1] = test system: PDE activity in GH4C1 cells; assay: Effect of PDE inhibitors, forskolin and VIP on cAMP levels (Ca2+ influx through CNG channels); format: cell-based, rat; conditions: C460W/E583M channels
# Procedure: To further test the utility of this approach, PDE activity in excitable GH4C1 pituitary cells was examined. In all of the experiments shown (See, FIGS. 13-14, and Table 2), 1 μM nimodipine was added at time zero to block Ca^2+ influx though voltage-gated Ca^2+ channels (triggered by membrane depolarization due to Ca^2+ and Na^+ influx through CNG channels). […] FIGS. 13 and 14 each depict experiments done on a single batch of cells. As before, similar results were obtained on three other batches. In the experiments that produced the data shown in Table 2, cAMP concentrations were monitored using Ca^2+ influx through C460W/E583M channels. […] Either 100 μM IBMX or vehicle (-IBMX; control) were added at time zero. Then, 50 μM forskolin were added at 180 seconds d(ΔF/F0)/dt, which is proportional to the Ca^2+ influx rate, was estimated as described in the Examples. Data are provided as mean±standard error. IBMX or vehicle was added at 60 seconds (first arrow in FIG. 13). Either 10 μM forskolin or 100 nM VIP were added at 240 seconds (second arrow in FIG. 13). In the absence of IBMX, large forskolin or VIP-induced increases in Ca^2+ influx were observed. […] This level of basal AC activity was quite different from that observed in HEK-293 cells (See, FIGS. 9 and 10). 1 μM nimodipine was added at time 0 to block endogenous voltage-gated Ca^2+ channels.
# To identify the PDE family or families that regulate the local cAMP concentration in GH4C1 cells, cAMP accumulation was monitored in the presence and absence of PDE inhibitors (See, Table 2). Again, the high cAMP affinity C460W/E583M channels were used. PDE inhibitors were added at 60 s. Although the addition of IBMX alone triggered Ca^2+ influx, 10 μM forskolin were added at 240 s as a positive control for CNG channel activity. […] This PDE is likely to have a low Km for cAMP because it is capable of regulating cAMP at concentrations too low for the WT or Δ61-90/C460W/E583M channels to detect. Thus, it is contemplated that a Ca^2+-CaM stimulated PDE (type I) is primarily responsible for controlling basal cAMP signals in GH4C1 cells.
# In addition, PDE activity was monitored using Δ61-90/C460W/E583M channels to detect changes in cAMP concentration (See, FIG. 14). PDE inhibitors and forskolin were added as described above. With this construct, it was not possible to observe changes in cAMP concentration due to inhibition of PDE activity alone. […] Inhibitors specific to other PDE types had no effect on the forskolin-induced Ca^2+ influx (data not shown). […] It is contemplated that Ca^2+ influx through the C460W/E583M channels was saturated at cAMP concentrations below the Km for this PDE. Thus, it is contemplated that there are two different PDE types that regulate local cAMP signals in GH4C1 cells: a low Km, 8-methoxymethyl-IBMX sensitive PDE (type I); and a high Km, RO-20-1724-, rolipram-sensitive PDE (type IV).
# GH4C1 rat pituitary cells (ATCC) were maintained in 13 mL Ham's F-10 medium (Life Technologies) supplemented with 14.3 mM NaHCO3, 15% donor horse serum (Gemini), and 2.5% fetal bovine serum, pH 6.8, in 75 cm^2 flasks at 37° C. in a humidified atmosphere of 95% air and 5% CO2. Cells were split weekly (1:4) and washed with fresh medium twice weekly. Cells were plated at ˜60% confluence in 100 mm culture dishes twenty-four hours prior to infection with the CNG-channel-encoding adenovirus constructs (multiplicity of infection=50 plaque forming units per cell). Forty-eight hours post-infection cells were detached, resuspended in serum-containing medium, and assayed within 12 hours.
# In this Example, experiments conducted to examine the response of excitable GH4C1 pituitary cells to stimulation by either forskolin or the hormone vasoactive intestinal peptide (VIP), in the presence of absence of PDE inhibitors are described. […]
# PDE III = conditions: cited from earlier work
# [2] = test system: HEK-293 cells expressing CNG channels; assay: Forskolin-induced cAMP accumulation monitored by Ca2+ influx (fura-2) through expressed CNG channels; format: cell-based, human
# Procedure: Next, experiments were conducted to assess the ability of each channel construct to detect increases in local cAMP concentration. Changes in cAMP concentration were detected using fura-2 to monitor Ca^2+ influx through CNG channels, as described in the Examples. Ca^2+ influx induced by different concentrations of forskolin, an AC activator, in the presence of 100 μM IBMX, a nonselective PDE inhibitor was measured. This approach allowed comparisons to be made between the cAMP sensitivities of the different channels to changes in cAMP, regardless of variations in expression levels between experiments. In HEK-293 cells expressing the WT channel, addition of forskolin was followed by a brief delay and an increase in Ca^2+ influx (See, FIG. 7, Panel A). The delay decreased and the rate of Ca^2+ influx increased in a dose-dependent manner. Neither effect was saturated at 50 μM forskolin. In cells expressing the E583M channel, addition of forskolin was also followed by a brief delay and an increase in Ca^2+ influx (FIG. 7, Panel B). As with the WT channel, the delay and the initial rate of Ca^2+ influx were dose-dependent. […] In cells expressing the Δ61-90/C460W/E583M channel, addition of forskolin caused similar increases in Ca^2+ influx as the E583M channel, including saturation of the delay and rate of influx at 20 μM (compare FIG. 7, Panel B with FIG. 7, Panel D). The increased response of the modified channels to forskolin treatment is consistent with the apparent cAMP affinities measured in excised patches in the absence of Ca^2+-CaM (C460W/E583M>E583M˜Δ61-90/C460W/E583>WT channels). There are several factors that may have contributed to the apparent lack of a Ca^2+-CaM effect on the channels.
# Briefly, HEK-293 were maintained in MEM (Life Technologies Inc.) supplemented with 26.2 mM NaHCO3, 10% (v/v) fetal bovine serum (Gemini), penicillin (50 μg/mL), and streptomycin ([…]), pH 7.0, at 37° C. in a humidified atmosphere of 95% air and 5% CO2. Cells were plated at ˜60% confluence in 100 mm culture dishes twenty-four hours prior to infection with the CNG-channel-encoding adenovirus constructs (multiplicity of infection=10 plaque forming units per cell). […] Twenty-four hours post-infection cells were detached with phosphate-buffered saline containing 0.03% EDTA, resuspended in serum-containing medium, and assayed within 12 hours.
# [3] = test system: rat olfactory CNG channel α subunit; assay: Excised inside-out patch recordings, cyclic nucleotide dose-response of CNG channel constructs; format: biochemical; conditions: for Imax^cGMP/Imax^cAMP: current at saturating cGMP divided by current at saturating cAMP
# Procedure: As described in greater detail herein, the effects of modifications to CNG channels were assessed using the Hill equation, I/Imax=[cNMP]^N/([cNMP]^N+K1/2^N), where I/Imax is the fraction of maximal current, cNMP represents cyclic nucleotide, K1/2 is the concentration that gives half-maximal current, and N is the Hill coefficient, an index of cooperativity. I/Imax^cGMP/Imax^cAMP is the current induced by saturating cGMP divided by the current induced by saturating cAMP. Data (mean±standard deviation of three experiments) were obtained from excised membrane patches using standard patch clamp techniques.
# To assess the cyclic nucleotide sensitivity of different CNG channel constructs, excised, inside-out patch recordings were made at room temperature (20-21° C.) using an Axopatch-200A patch clamp amplifier (Axon Instruments Inc.). Pipettes were pulled from borosilicate glass and heat polished. Pipettes were lowered onto the cells and gigaohm seals were formed. Patches were excised by shearing cells from the pipette with a jet of liquid. Ionic currents were elicited by 250 ms pulses to membrane potentials of +50 and −50 mV from a holding potential of 0 mV. Current records were sampled at five times the filter setting and stored on an IBM compatible computer. Records were corrected for errors due to series resistance (pipette resistance was 4.1 ±0.1 MΩ). Both the pipette and bath solutions contained (mM): 130 NaCl, 2 HEPES, 0.02 EDTA, and 1 EGTA, pH 7.6. Cyclic nucleotide-induced currents were obtained from the difference between currents in the presence and absence of cyclic nucleotides. Dose response curves for cAMP and cGMP were obtained at +50 and −50 mV in the same patch. The effects of the modifications were assessed using the Hill equation, I/Imax=[cNMP]^N/([cNMP]^N+K1/2^N), where I/Imax is the fraction of maximal current, cNMP represents cyclic nucleotide, K1/2 is the concentration that gives half-maximal current, and N is the Hill coefficient, an index of cooperativity. K1/2 and N for cAMP were 36±5 μM, 10±2 μM, 1.0±0.3 μM, and […] for WT, E583M, C460/E583M, and Δ61-90/C460W/E583M channels, respectively (See, Rich et al., J. Gen. Physiol. [2001], supra).
# The cyclic nucleotide sensitivity of the C460W/E583M CNG channel was assessed in excised, inside-out patches as known in the art (See, Rich et al. [2001], supra). K1/2 and N were 1.1±0.3 μM and 2.1±0.4 at +50 mV; and 1.0±0.3 μM and 2.0 ±0.3 at −50 mV (n=11). With these values, the cAMP concentration could be calculated from currents measured in perforated patch experiments (Rich et al. Proc. Natl. Acad. Sci. [2001], supra).
molecule,measurement,setting,value
C[C@@H]1C(=O)NC2=Nc3cccc(Cl)c3CN21 [Quazinone],d(ΔF/F0)/dt,"[1]; basal cAMP, inhibitor concentration (μM)",0 s⁻¹
same,IC50,PDE III,600 nM
C=C[C@@]1(C)CC(=O)[C@]2(O)[C@@]3(C)[C@@H](O)CCC(C)(C)[C@@H]3[C@H](O)[C@H](OC(C)=O)[C@@]2(C)O1 [forskolin],forskolin-induced increase in cAMP concentration averaged throughout the accessible cell volume,[2],1 to 2 µM
same,forskolin-induced increase in cAMP concentration measured using CNG channels,"[2]; local, near plasma membrane",> 25 µM
vasoactive intestinal peptide [VIP],cAMP accumulation and Ca2+ influx after AC stimulation,[1]; 10 μM forskolin or 100 nM VIP after IBMX or vehicle,caused additional cAMP accumulation and Ca^2+ influx
B1,Imax^cGMP/Imax^cAMP,[3]; +50 mV,0.40 ± 0.10
same,Imax^cGMP/Imax^cAMP,[3]; −50 mV,0.35 ± 0.16
same,current elicited by saturating cGMP as % of the current elicited by saturating cAMP,[3]; excised patches,~40%
same,forskolin concentration at which delay and rate of Ca2+ influx saturated,"[2]; 100 μM IBMX, forskolin 0-50 μM",20 µM
B2,Imax^cGMP/Imax^cAMP,[3]; +50 mV,1.0
same,Imax^cGMP/Imax^cAMP,[3]; −50 mV,1.0
